Substitutions are numbered along the chain they refer to. Names and notes keep the numbering of the source.
T1: FDX1 WT (aa 61-184), N-terminal hexa-histidine tag (human), P10109
T1 chain: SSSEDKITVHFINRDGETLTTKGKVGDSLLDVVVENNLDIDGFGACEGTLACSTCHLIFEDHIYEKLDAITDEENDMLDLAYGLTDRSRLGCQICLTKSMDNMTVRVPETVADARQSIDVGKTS

T2: FDXR (a.a 33-491), tagless (human, UniProt P22570 33-491, labelled with the RED-NHS 2nd generation protein labeling kit)
T2 construct: ferredoxin reductase (FDXR), human, residues 33-491, lacking the mitochondrial transit peptide; pDWSUMO; Cleavage of the SUMO tag by ULP1 leaves a Gly-His appendage at the N-terminus; also called ferredoxin reductase; mitochondrial NADPH-dependent ferredoxin reductase; source: E. coli BL21 (DE3), purified; not shown: His6-SUMO, N-terminal, cleaved
T2 sequence (looked up): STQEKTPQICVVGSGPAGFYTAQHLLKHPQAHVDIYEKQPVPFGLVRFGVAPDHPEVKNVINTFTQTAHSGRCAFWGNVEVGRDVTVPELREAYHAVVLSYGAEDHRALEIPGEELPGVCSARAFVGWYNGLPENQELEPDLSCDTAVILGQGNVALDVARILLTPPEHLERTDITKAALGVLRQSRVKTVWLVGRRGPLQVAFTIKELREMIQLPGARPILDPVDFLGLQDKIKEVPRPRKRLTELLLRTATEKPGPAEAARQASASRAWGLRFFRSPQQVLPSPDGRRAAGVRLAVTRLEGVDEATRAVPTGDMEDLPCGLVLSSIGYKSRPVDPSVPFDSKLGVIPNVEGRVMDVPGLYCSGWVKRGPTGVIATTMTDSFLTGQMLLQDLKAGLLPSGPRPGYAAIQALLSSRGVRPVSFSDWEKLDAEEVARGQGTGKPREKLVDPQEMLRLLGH

T3: LIAS (aa 28-372), tagless (UniProt O43766 28-372)
T3 construct: lipoic acid synthase (LIAS), residues 28-372, lacking the mitochondrial transit peptide; pDWSUMO; Cleavage of the SUMO tag by ULP1 leaves a Gly-His appendage at the N-terminus; Carries reconstituted Fe-S clusters; also called lipoic acid synthase; source: E. coli BL21 (DE3) carrying pDB1282, purified, iron-sulfur clusters reconstituted; not shown: His6-SUMO, N-terminal, cleaved
T3 sequence (looked up): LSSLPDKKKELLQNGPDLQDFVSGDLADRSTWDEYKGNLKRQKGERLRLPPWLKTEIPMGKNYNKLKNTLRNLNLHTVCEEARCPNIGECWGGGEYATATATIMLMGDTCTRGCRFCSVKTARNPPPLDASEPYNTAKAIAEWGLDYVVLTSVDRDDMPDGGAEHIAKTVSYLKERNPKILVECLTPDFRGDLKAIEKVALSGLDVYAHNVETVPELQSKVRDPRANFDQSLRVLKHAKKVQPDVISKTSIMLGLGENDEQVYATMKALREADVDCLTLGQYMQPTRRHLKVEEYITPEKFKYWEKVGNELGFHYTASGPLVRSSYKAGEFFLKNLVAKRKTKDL

B1: LIAS (aa 28-372), tagless, O43766 28-372 (enzyme)
chain: T3 sequence (looked up)
B2: FDX1 WT (aa 61-184), N-terminal hexa-histidine tag (domain or fragment, human, UniProt P10109 61-184, looked up)
chain: T1 chain
notes: ferredoxin 1 (FDX1), human, residues 61-184, lacking the mitochondrial transit peptide; pET28a; Carries a reconstituted Fe-S cluster; In the FDX1-LIAS TRIC assay it was labelled on the His tag with the Red-Tris-NTA 2nd generation dye; in the FDXR assay it was the unlabelled ligand; also called ferredoxin 1; source: E. coli BL21 (DE3) carrying pDB1282, purified, iron-sulfur cluster reconstituted; …
B3: FDX1 D136R (aa 61-184), N-terminal hexa-histidine tag (domain or fragment, human, UniProt P10109 61-184, looked up)
chain: T1 chain with D76R
notes: ferredoxin 1 (FDX1), human, residues 61-184, lacking the mitochondrial transit peptide; pET28a; Carries a reconstituted Fe-S cluster; Labelled with Red-Tris-NTA dye in the LIAS assay only; source: E. coli BL21 (DE3) carrying pDB1282, purified, iron-sulfur cluster reconstituted; not shown: His6, N-terminal, kept
B4: FDX1 D139A (aa 61-184), N-terminal hexa-histidine tag (domain or fragment, human, UniProt P10109 61-184, looked up)
chain: T1 chain with D79A
notes: as for B3
B5: FDX1 D139R (aa 61-184), N-terminal hexa-histidine tag (domain or fragment, human, UniProt P10109 61-184, looked up)
chain: T1 chain with D79R
notes: as for B3
B6: FDX1 D136A (aa 61-184), N-terminal hexa-histidine tag (domain or fragment, human, UniProt P10109 61-184, looked up)
chain: T1 chain with D76A
notes: as for B3

Target: T1, FDX1 WT (aa 61-184), N-terminal …
Assay: Temperature-Related Intensity Change (TRIC) fluorescence; 100 nM Red-Tris-NTA-labelled His-tagged FDX1 WT or variant as target, tagless LIAS serially diluted (10 points from 63 µM); anaerobic; 25 mM MOPS pH 7.5, 125 mM KCl, 125 mM NaCl, 5% glycerol, 0.05% Tween; 30 min at room temperature, read at 22 °C; Dianthus NT.23
Conditions: remark: other sources report otherwise

Kd	Binder
3200 nM	B1

target: T2, FDXR (a.a 33-491), tagless; assay: Temperature-Related Intensity Change (TRIC) fluorescence; 50 nM RED-NHS-labelled tagless FDXR as target, His-tagged FDX1 WT or variant serially diluted (11 points from 54-68 µM); anaerobic; 25 mM MOPS pH 7.5, 125 mM KCl, 125 mM NaCl, 5% glycerol, 0.05% Tween; 30 min at room temperature, read at 22 °C; Dianthus NT.23; conditions: both partners purified

Kd	Binder
1500 ± 200 nM	B2
2200 ± 300 nM	B3
1500 ± 300 nM	B4
2100 ± 200 nM	B5
1800 ± 300 nM	B6

target: T3, LIAS (aa 28-372), tagless; assay: Temperature-Related Intensity Change (TRIC) fluorescence; 100 nM Red-Tris-NTA-labelled His-tagged FDX1 WT or variant as target, tagless LIAS serially diluted (10 points from 63 µM); anaerobic; 25 mM MOPS pH 7.5, 125 mM KCl, 125 mM NaCl, 5% glycerol, 0.05% Tween; 30 min at room temperature, read at 22 °C; Dianthus NT.23; conditions: both partners purified

Kd	Binder
4500 ± 800 nM	B3
4900 ± 600 nM	B4
2500 ± 600 nM	B5
3200 ± 300 nM	B6

Reference: paper PMC12855868, “Deep Mutational Scanning of FDX1 Identifies Key Structural Determinants of Lipoylation and Cuproptosis” (Nature Communications, 2025)
